Test results reported in patent publication EP4688860A2 (dated 2026).

B1: anti-CD38 scFv of SEQ ID NO:119 (scFv)
scFv: EVQLLESGGGLVQPGGSLRLSCAASGFTFSNYDMSWVRQAPGKGLEWVSTTSASGGNTYYADSVRGRFTISRDNSKNTLYLQMNSLRAEDTAVYYCAKEGDGYNPFRDHYYYFMDVWGKGTTVTVSSGGGGSGGGGSGGGGSETVMTQSPAALSVSPGERATLSCRASQSVSSNLAWYQQKPGQAPRLLIYGASTRATGIPARFSGSGSGTEFTLTISSLQSEDFAVYYCQQYNNWPPYTFGQGTKLEIK
notes: One of the 12 selected scFvs; Also tested inside a CAR
B2: anti-CD38 scFv of SEQ ID NO:117 (scFv)
scFv: EVQLVESGGGVVRPGGSLRLSCAASGFTFDDYGMSWVRQAPGKGLEWVSGINWNGGSTGYADSVKGRFTISRDNAKNSLYLQMNSLRAEDTAFYHCAREGDGYKGTFYYYYYMDVWGKGTTVTVSSGGGGSGGGGSGGGGSDIQLTQSPSFLSASVGDRVTITCRASQGIFNYLAWYQQKPGKAPNLLIYAASNLQSGVPSRFSGSGSGTEFTLTISSLQPEDFATYYCQQLNSYPLTFGGGTKVEIK
notes: as for B1
B3: anti-CD38 scFv of SEQ ID NO:112 (scFv)
scFv: QVQLVQSGAEVKKPGASVKVSCKASGFTFTSYGFSWVRQAPGQGLEWMGWISAYSGNTKYAQKFQGRVTMTTDTSTSTAYMELRSLRSDDTAVYYCAREGGTTGTFYYYYYMDVWGKGTTVTVSSGGGGSGGGGSGGGGSEIVLTQSPDFQSVTPKEKVTITCRASQSIGRSLHWYQQKPDQSPKLLIKYASQSFSGVPSRFSGSGSGTDFTLTINSLEAEDAATYYCLQSSSLPLTFGGGTKVEIK
notes: as for B1
B4: anti-CD38 scFv of SEQ ID NO:111 (scFv)
scFv: EAQLLESGGDLVQPGGSLRLSCAASGFTFSSYAMSWVRQAPGKGLEWVSTISVSGDSTYYADSVKGRFTISRDNSKNTLYLQMNSLRAEDTAVYYCAKALLYQGLRMDVWGKGTTVTVSSGGGGSGGGGSGGGGSDIQMTQSPSSLSASVGDRVTITCRASQGIATWLAWYQQKPEKAPKSLIYAASSLQSGVPSRFSGSGSGTDFTLSISSLQPEDFATYYCQQYNSYPLTFGGGTKVEIK
notes: as for B1
B5: anti-CD38 scFv of SEQ ID NO:110 (scFv)
scFv: QVQLVQSGAEVKKPGASVKVSCKASGYTFNRYVISWVRQAPGQGLEWMGWIRAYNGNTNYAQKFQGRVTMTTDTSTSTAYMELRSLRSDDTAVYYCARDSTTGTTEGMDVWGKGTTVTVSSGGGGSGGGGSGGGGSEIVMTQSPATLSLSPGERATLSCRASQSVSSSYLSWYQQKPGQAPRLLIYGASTRATGIPARFSGSGSGTDFTLTISSLQPEDFAVYYCQQDYNLPLTFGGGTKVEIN
notes: as for B1
B6: anti-CD38 scFv of SEQ ID NO:108 (scFv)
scFv: EVQLLESGGGLVQPGGSLRLSCAASGFTFSSYAMTWVRQAPGKGLEWVSAISPSGGSTFYADSVKGRFTISRDNSKNTLYLEMNSLRAEDTAVYYCAKDLDFYGSGSYSSWGKGTTVTVSSGGGGSGGGGSGGGGSEIVMTQSPATLSLSPGERATLSCRASQSVSNSYLSWYQQKPGQAPRLLIFGTSTRATGIPARFSGSGSGTDFTLTISSLQPEDFAVYHCQQDYKLPYTFGQGTKLEIK
notes: One of the 12 selected fully human scFvs; Also tested inside a CAR (CD8a hinge and transmembrane, OX40, CD3zeta; FLAG tag in Jurkat cells)
B7: anti-CD38 scFv of SEQ ID NO:116 (scFv)
scFv: EVQLVESGGGVVRPGGSLRLSCAASGFTFDDYGMSWVRQAPGKGLEWVSGINWNGGSTDYAASVKGRFTISRDNAKNSLYLQMNSLRAEDTALYHCARVFCTNGVCYPYSYYYFMDVWGKGTTVTVSSGGGGSGGGGSGGGGSEIVMTQSPATLSVSPGERATLSCRASQSVSSNLAWYQQKPGQAPRLLTYGASTRATGIPARFSGSGSGTEFTLTISSLQSEDFAVYYCQQYNNWPYTFGQGTRLEIK
notes: as for B1
B8: anti-CD38 scFv of SEQ ID NO:109 (scFv)
scFv: EGQLLESGGGLVQPGGSLRLSCAASGFTFSSFAMSWVRQAPGKGLEWVSTISGSGGSTNYADSVKGRFTISRDNSKKTLYLQMSSLRAEDTAVFYCAKGPTSPYSYYMDVWGKGTTVTVSSGGGGSGGGGSGGGGSEIVMTQSPATLSLSPGERATLSCRASQSVSSSFLSWFQQKPGQAPRLLIYGASTRATGIPARFSGSGSGTDFTLTISSLQPEDFAVYYCQQDYNLPYTFGQGTKLEIK
notes: as for B1

Target: T1, human CD38 on cells (human CD38-overexpressing Jurkat cells); CD38-expressing MM.1R, THP-1 and MM.1S target … (human, UniProt P28907 1-300)
T1 construct: also called CD38+ cells
Test: summing-up sentence of the examples (cell binding, SPR, CAR format)

Binding result, binds:
B1, B2, B3, B4, B5, B6, B7, B8
